Reference: the nanobody polyreactivity screen of Harvey et al. (2022)

Test: yeast display, Sf9 membrane polyspecificity reagent, FACS + sequencing; frameworks hold sequencing errors
Summary of the method: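 A nanobody's polyreactivity label depends on the gate it was sorted from. Yeast display cells were stained with 10% biotinylated, detergent-solubilized Sf9 membrane reagent for 1 hour at 4 °C, enriched on streptavidin microbeads and sorted by FACS. The low and high (top ~1%) gates were set on anti-HA fluorescence for expression and streptavidin fluorescence for reagent binding.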

| Sequence | polyreactivity (PSR sort gate) |
| --- | --- |
| QVQLVESGGGLVQAGGSLRLSCAASGRIFYNYAMGWYRQAPGKERELVASISNSGGSTYYADSVKGRFTISRDNAKNTVYLQMNSLKPEDTAVYYCARRYYYYTTYRYDYWGQGTQVSVSS | high polyreactivity |
| QVQLVESGGGLVQAGGSLRLSCAASGRTFIVNAMGWYRQAPGKVRELVAAITKGARTYYADSVKGRFTISRDNAKNTVYLQRNSLKPEDTAVYYCNATRLGGNGTRHYYWGQGTQVTVSS | high polyreactivity |
| QVQLVESGGGLVQAGGSLRLSCAASGFTFPGYTMGWSRQAPGKERELVAAISTSGGSTYYADSVKGRFTISRDNAKNTVYLQMNSLKPEDTAVYYCAAAKPRVISQNIIYDYWGQGTQVTVSS | high polyreactivity |
| QLQLVESGGGLVQAGGSLRLSCAASGSTVAYNDMGWYRQAPGKERELVADIRSGGNTNYADSVKGRFTISRDNAKNTVYLQMNSLKTEDTAVYYCATDGYRIDVYHPDYRYDYWGQGTQVTVSS | low polyreactivity |
| QVKLVESGGGLVQAGGSLRLSCAASGIIFSGNAMGWYRQAPGKERELVAAITRGGRTYYADSVKGRFTISRDNAKNTVYLQMNSLKPEDTAVYYCAADDPHRAREYDYWGQGTQVTVSS | high polyreactivity |
| QVQLVESGGGLVQAGGSLRLSCAASGITFAYNAMGWYRQEPGKERELVARITSGGRTYYADSVKGRFTISRDNAKNTVYLQMNSLKPEDTAVYYCATPYTSYLYGYDYWGQGTQVTVSS | low polyreactivity |
| QVQLVESGGGLVQEGGSLRLSCAASGRIFQWNAMGWYRQAPGKERELVATISSRGGSTYYADSVKGRFTISRDNAKNTVYLQMNSLKPEDTAVYYCAARYYAKYRSYDYWGQGTQVTVSS | high polyreactivity |
| QVQLVESGGGLVQAGGSLRLSCAASGGIFLSNAMGWYRQAPGKERELVAAISRSGGSTYYADSVKWRFTISRDNAKNTVYLQMYSLKPEDTAVYYCAARWTRNYGMNYWGQGTQVTVSS | high polyreactivity |
| QDQLVETGGGLVQAGGSLRLSCAAYGSIFDLNAMGWYRQAPGKESELVAAITYSSGRTYYADSVKGRFTISRDNAKNTVYLQMNSLKPEDTAVYYCNADLWFHYYRYNYWGQGTQVTVSS | high polyreactivity |
| QVQLVESGGGLLQAGGSLRLSCAASGSTISRYAMGWYRQAPGKERELVAAIRRNGDGTYYADSVKGRFTISRDNAKNTVYVQMNSLKPEDTAVYYCAARRFIPRFNYWGQGTQVTVSS | high polyreactivity |
| QVQLVESGGGLVQAGGSLRLSCAASGLIFEYYAMGWYRQAPGKERELVAVINWSGASTYYADSVKGRFTISRDNAKNTVYLQMNSLKPEDTAVYYCAAGVLITGLRFDYWGQGTQVTVSS | low polyreactivity |
| QVQLVESGGGLVQAGGSLRLSCAASGNIFIRYAMGWYRQAPGKERELVAAISQSGGGTSYADSVKGRFRISRDNAKNTVYLQMNSLKPEDTAVSYCNVEKVGHFNSYGYDYWGQGTQVTVSS | low polyreactivity |
| QVQLVESGGGLVQAGGSLRLSCAASGSTFRYYAMGWYRQAPGKERELVAVISTSGNTYYADSVKGRFTISRDNAKNTVYLQMNSLKPEDTAVYYCAARGVGGQISQEYDYWGQGTQVTVSS | low polyreactivity |
| QVQVVESGGGLVQAGGSLRLSCAASGFIFRTYTMGWYRQAPGKERELVAAISYRGSSTYYADSVKGRFTISRDNAKNTVYFLMNSLKPEDTADYYCAAQLYGHRGYYWGQGTQVTVSS | high polyreactivity |
| QVQIVESGGGLVQAGGSLRLSCAASGSTFDDYVMGWYRQAPGKEREFVAAISTNGGSTYYADSVKGRFTISRDNAKNTVYLQMNSLKPEDTAVYYCAAESQDFYAILGLYDYWGQGTQVTVSS | low polyreactivity |
| QVQLVESGGGLVQAGGSLRLSCAASGRTFASYAMGWYRQAPGKERELVAGITSGGNTYYADSVKGRFTISRDNAKNTVYLQMNSLKPEDTAVYYCNAVRRVSSAGEFDYWGQGTQVTVSS | high polyreactivity |
| QGQHVESGGGLVQAGGSLRLSCAASGRIFVPYAMGWYRQAPGKERELVAAITWRGGSPYYADSVKGRFTLSRDNAKNTVYLQMNSLKPVDTAVYYCNAAEASPWFWFSHLQVGMDYWGQGTQVTVSW | low polyreactivity |
| QVQLVESGGGLVQAGGSLRLSCAASGSTFCDNSMGWYRQAPGKERELVAAITTSGTSTYYADSVKGRFTISRDNAKNTVYLQMNSLKPEDTAVYYCAAPYGVARFGDYLDDYDYWGQGTQVTVSS | low polyreactivity |
| QVQLVESGGGLVQAGGSLRLSCAASGSIFIYNAMGWYRQAPGKERELVAAINWTGGSTYYADSVKGRFTISRDNAKNTVYLQMNSMKPEDTAVYYCNALRYGSTRGYDYWGQGSQVTVSS | high polyreactivity |
| QVQLVESGGGLVQAGGSLRLSCAASGFTLQSNAMGWYRQAPGKERELVAAISFRGGSTYYADSVKGRFTISRDNAKNTVYLQMNSLKPEDTAVYYCAAVQVHLREYDYWGQGSQVTVSS | low polyreactivity |
| QVQLVESGGGLVQAGGSLRLSCAASGRIFPGYAMGWYRQAPGKERELVAAISGSGVRTYYADSVKGRFTISRDNAKNTFYLQMNSLKPEDTAVYYCAADSKIRTKLDYWGQGTQVTVSS | low polyreactivity |
| QVQLVESGGGLVQAGGSLRLSCAASGRTFGWYAMGWYRQAPGKEREFVAVISRSGTNTYYADSVKGRFTISRDNAKNTVYLQMNSLKPEDTAVYYCATYWSLSQSRQGDYWGQGTQVTVSS | high polyreactivity |

| Sequence | polyreactivity (PSR sort gate) |
| --- | --- |
| QVHLVESGGGLVQAGGSLRLSCASSGSIFRWYAMGWYRPAPGKERELVAAISTSGGNTYYADSVKGRFTISRDNAKNTVYLQMNSLKPEDTAVYYCNALWYRSLSYRYDYWGQGTQVTVSS | high polyreactivity |
| QVQLVESGGGLVQAGGSLRLSCAASGFIFGYYAMGWYRQAPGKERELVAAISWSGGSTYYADSVKGRFTISRDKAKNTVYLQMNSLKPEDTAVYYCATASPSTRYGRLGDYWGQGTQVTVSS | low polyreactivity |
| QVQLVESGGGLVLAGGSLRLSCAASGRTFGWNAMGWYRQAPGTERELVAAISWSGGSTSYADSVKARFTISRDNAKNTVYLQMNSLKPEDTAVYYCGKLDSYGMYYWGQGTQVTVSS | low polyreactivity |
| QVQLVESGGGLVQAGGSLRLSCAASGITFKYYAMGWYRQAPGKERELVAAINWSGDRTYYADSVKGRFTISRDNAKNTVYLQMNSLKPEDTAVYYCAATAWPGRYWRQEVDYWGQGTQVTVSS | high polyreactivity |
| QVQLVESGGGLVQAGGSLRLSCAASGSTLGRNAMGWDRQAPGKEREFVAAITYSTGSTYYADSVKGRFTISRDNAKNTVYVQMNSLKPEDTAVYYCAKGRLTRGYVTFEYWGQGTQVTGSS | high polyreactivity |
| QVQLEDSGGGLVQAGGSLRLSCAASGLNLYRYAMGVYRQEPGKEREFVASISWSGGSTYYADSVKGRFTISRDNAKNTVYLQMNSLKPEDTAVYYCATDSDTSQLGYDYWGQGTQVTVAS | low polyreactivity |
| QVQLVESGGGLVQEGGSLRLSCAASGGIFFPNAMGWYRQAPGKERELVAAISWSAGSTYYADSVKGRFTISRDNAKNTVYLQMKSLKPEDTAVYYCAAAGSNYTVWFGYYYWGQVTQVTVSS | low polyreactivity |
| QVLLVESGGGLVQAGGSLRLSCAASGITFAYYVMGWYRQAPGKERELVAAINWSGGSTYYADSVKGRFTISRDNAKNTVYLQMNSLKPEDPAVYYCAADWSTWYGEKFYWGQGTQVTVSS | high polyreactivity |
| QDQLVESGGGLVQAGGSLRLSCAASGSIFSTNAMGWYRQAPGKERELVAAITYSGSRTYYADSVKGRFTISRDTAKNTVFLQMNSLKPEDTAVYYCAADTSWYSWWFDYWGQGTQVTVSS | low polyreactivity |
| QVQLVKSGGGLVQAGGSLRLSCAASGGTFSFYTMGWYRQAPGKERELVAAIDSTGRTNYADSVKGRFTISRDNANHTVYLQMNSLKPEDTAVYYCAAGPPRADYDYWGQGTQVNVSS | low polyreactivity |
| QVQLVESGGGLVQAGGSLRLSCAASGFIFYTYAMGWYRQAPGKERELVAAISRGGRTNYADSVKGRFTISRDNAKNSVYLQMNSLKPEDTAVYYCASSYSHRYDYWGQGTQVTVSS | high polyreactivity |
| QVQLVESGGGLVQAGGSLRLSCAASGRIFVWNAMGWYRQAPGKERELVAAITSSGGNTYYADSVKGRFTISRDNAKNNVYLQMNSLKQEDTAVYYCAAAGGAWARYRFNYWGQGTQVTVSS | high polyreactivity |
| QVQLVESGGGLVQAGGSLRLSCASSGFIFFSYAMGWYRQAPGKERELVASISRSGGTTYYADSVKGRFTISRDNAKNTVYLQMNSLKPEDTAVYYCAARTYSYYSRDYWGQVTQVTVSS | high polyreactivity |
| QVQLVESGGGLVQAGGSLRLSCAASGINFRYYAMGWYRQATGKERELVADISSDGGTYYADSVKGRFKISRDNAQNTVYLQMNSLKPEDTAVYYCAADYQFYWHYYYWGQGTQVTVSS | high polyreactivity |
| QVQLVESGGGLVQAGGSLRLSCAASGGTFSGYTMGWYRQAPGKEWELVAAITRSGSSTYYADSVKGRFTISRDNAKNTVYLQMNSLKPEDTAVYYGAATYGSGVYKYDYWGQGTQVTVSS | high polyreactivity |
| QVQLVESGGGLVQAGGSLRLSCAASGRTLWSYAMGWYRQAPGKEREIVAAISRRGGITYYADSVKGRFTISRDYAKNTVFLQRISLKPVDTAVFYSAKGAQSYYGGQVKYDYWGQGTQVTVSS | high polyreactivity |
| QVQLVESGGGLVQAGGSLRLSCAASGSILYHYAMGWYRQAPGKERELVAGISWRGGSTYYADSVKGRFTISRDNAMNTVYLQMNSLKPEDTAVYYCATLRYPYRFYAFQYYYWGQGTQVTVSS | low polyreactivity |
| QVQLVESGGGLVQAGGSLRLSCAASGFIFPYYAMGWYRQAPGKERELVAAISGSGGSTYYADSVKGRFTISRDNANYTVYLQMNSLKPEDTAVYYCAASARRLNMGYWGQGTQVTVSS | high polyreactivity |
| QVQLVESGGGLVQAGGSLRLSCAASGSTFGYYGMGRYRQAPGKERELVASIDSRGDSTYADSVKGRFTISRDNAKNTVYLQMNSLKPEDTSVYYCADDSWYTWFDSWGQGTQVTVSS | low polyreactivity |
| QVQLVESGGGLVQAGGSLRLSCAASGLIFHHNAMGWYRQTPGKERELVAAISRSAGSTYYADSVKGRFTISRDNAKNTVYLQMKSLKPEDTAVYYCAKGPTPTSKYDTVGYGYWGQGTQVTVSS | low polyreactivity |
| QVQLVESGGGLVQAGGSLRLSCAASGFTLKYYAMGWYRQAPGKERELVAAITSSGVSTYYADSVKGRFTISRDNAKNTVYLQMNSLKPEDTAVYYCAALYWYSRSSWDYDYWGQGTQVTVSS | high polyreactivity |
